# According to patent publication US20160235810A1, “METHODS OF TREATING DIABETES AND RELATED DISORDERS” (NOVARTIS AG, priority 2013, published 2016):
# What was measured:
# [1] = test system: high fat diet-induced obese (DIO) mice; assay: OGTT after hydrodynamic injection (HDI) of vector encoding PIP/Sval1 in high fat DIO mice; format: in vivo
# From the text: To ascertain if this newly implicated factor can replicate some of the benefits shown by the RYGB surgery, a hydrodynamic gene delivery method was developed in-house. We tested the effect of delivery of DNA encoding the secreted factor PIP in vivo. The Fc-fusion proteins of PIP was encoded in pLEV113 vector, which was delivered via hydrodynamic injection (HDI) in high fat diet-induced obese (DIO) mice.
# Mice, that were maintained for 12 weeks on high fat diet (60% Kcal fat, Research Diets), were sorted into groups based on their body weights and fed blood glucose levels. On the day of HDI of the PIP vector or control pLEV113 vector (30 ug/mouse), mice were placed in a restrainer and tails were cleaned with 70% alcohol. A 27-G butterfly needle connected with a 3 ml syringe was inserted into the tail vain, with bevel facing up, and pulled backwards on the syringe plunger to ensure blood was drawn into the syringe. The desired volumes (7% of body weight, up to a total of 3.2 mL) of DNA construct solution was injected over a short period (5-10 seconds) by hand. The needle was then withdrawn and bleeding stopped by adding pressure to the injection site with gauze.
# After the HDI procedure, mice were monitored twice daily in the first 48 hours and then once per day for a week. Basal fed blood glucose levels in mice were measured at day 14, and blood samples were collected to obtain plasma for measuring Fc level or for endogenous protein levels in the future.
# At day 16 post-HDI an OGTT was conducted to evaluate glucose handling and beta cell function. Basal and glucose-stimulated glucose and insulin levels were measured over 2-3 hours during the OGTT.
# At day 30, basal blood glucose levels, changes in weight or food intake, and another functional tests, such as an OGTT, were performed for a 2nd time.
# At day 40 post-HDI, the study was terminated by euthanization of mice and plasma collected for key metabolic biomarkers.
# [2] = test system: diabetic non-human primates; details: Kharitonenkov et al. 2007; cited from earlier work
molecule,measurement,setting,value
"human PIP: human prolactin-inducible protein (GenBank NP_002643), here delivered via HDI of vector (protein, UniProt P12273 29-146, looked up) Prolactin-inducible protein: QDNTRKIIIKNFDIPKSVRPNDEVTAVLAVQTELKECMVVKTYLISSIPLQGAFNYKYTACLCDDNPKTFYWDFYTNRTVQIAAVVDVIRELGICPDDAAVIPIKNNRFYTIEILKVE",beta cell function compared to mouse Sval1,[1]; HDI administration in DIO mice,improved beta cell function similar to that of mouse Sval1
"mouse PIP: mouse prolactin-inducible protein, delivered as DNA in pLEV113 vector via hydrodynamic injection (full length native and Fc-tagged tested) (protein, UniProt P02816 27-146, looked up) Prolactin-inducible protein …: QDDENVRKPLLIEIDVPSTAQENQEITVQVTVETQYRECMVIKAYLVSNEPMEGAFNYVQTRCLCNDHPIRFFWDIIITRTVTFATVIDIVREKNICPNDMAVVPITANRYYTYNTVRMN",reduction in glucose area under the curve during an OGTT,"[1]; hydrodynamic gene delivery, high fat DIO mice, glucose AUC 0-120 min, compared to vector control group",30%
same,increase in insulin area under the curve (GSIS) during an OGTT,"[1]; hydrodynamic gene delivery, high fat DIO mice, insulin AUC 0-30 min, compared to vector control group",72%
"FGF-21: Fibroblast Growth factor 21, an endocrine hormone; proposed fusion partner (protein) HPIPDSSPLLQFGGQVRQRYLYTDDAQQTEAHLEIREDGTVGGAADQSPESLLQLKALKPGVIQILGVKTSRFLCQRPDGALYGSLHFDPEACSFRELLLEDGYNVYQSEAHGLPLHLPGNKSPHRDPAPRGPARFLPLPGLPPALPEPPGILAPQPPDVGSSDPLSMVGPSQGRSPSYAS",increase in HDL cholesterol,[2],~80%
